Reference: patent US20260193644A1, “Compositions and Methods For Modulation of Tumor Suppressors and Oncogenes” (FLAGSHIP PIONEERING INNOVATIONS VII, LLC, priority 2022, published 2026)
Values belong to the molecule of their own block, whether it stands above or below them. No end group written: not given here.

Experiments:
Assay type in all cases: cell-based
CXCR4 = CXCR4 (Homo sapiens, UniProt P61073); assay: PathHunter β-Arrestin CXCR4 human chemokine GPCR antagonist assay (gpcrMAX screening and hit-confirmation); settings: for % inhibition: hit-confirmation
Method: SEQ ID NO: 30949 blocks CXCR4 and cancer cell migration, making it suitable in the treatment of multiple cancers. Whereas SEQ ID NO: 34229 agonizes C3AR1, a key regulator of immune response and inflammation. The target proteins SEQ ID NO: 30949 and SEQ ID NO: 34229 were treated with gpcrMAX, which is a comprehensive panel covering 168 G protein-coupled receptors (GPCRs) from over 60 distinct receptor families. This panel utilizes PathHunter® β-Arrestin technology (Eurofins DiscoverX). PathHunter β-Arrestin GPCR cell lines are engineered to co-express the ProLink™ (PK) tagged GPCR and the Enzyme Acceptor (EA) tagged β-Arrestin. Activation of the GPCR-PK induces β-Arrestin-EA recruitment, forcing complementation of the two β-galactosidase enzyme fragments (EA and PK). The resulting functional enzyme hydrolyzes substrate to generate a chemiluminescent signal.
Cell Handling: PathHunter® cell lines were expanded from freezer stocks according to standard procedures. Cells were seeded in a total volume of 20 μL into white walled, 384-well microplates and incubated at 37° C. for the appropriate time prior to testing. […]
Signal Detection: Assay signal was generated through a single addition of 12.5 or 15 μL (50% v/v) of PathHunter® Detection reagent cocktail, followed by a one-hour incubation at room temperature. Microplates were read following signal generation with a PerkinElmer Envision™ instrument for chemiluminescent signal detection.
Data Analysis: Compound activity was analyzed using CBIS data analysis suite (ChemInnovation, CA). For agonist mode assays, percentage activity was calculated using the following formula: % Activity=100%×(mean RLU of test sample−mean RLU of vehicle control)/(mean MAX control ligand−mean RLU of vehicle control). For antagonist mode assays, percentage inhibition was calculated using the following formula: % Inhibition=100%×(1−(mean RLU of test sample−mean RLU of vehicle control)/(mean RLU of EC80 control−mean RLU of vehicle control)).

NAMALWA cells = assay: Chemotaxis assay (trans-well cell migration); settings: NAMALWA human Burkitt lymphoma cells; 24 hours; SDF-1 (CXCL-12)
Method: Chemotaxis Assay: NAMALWA cells (human Burkitt lymphoma cell line, ATCC) were cultured in serum-free ATCC formulated RPMI for 24 hr prior to the assay. After starvation, harvest cells and centrifuge at 1,000×g, for 5 minutes to pellet them. Resuspend the cell in a serum-free media. Using Cell Migration/Chemotaxis Assay Kit (96-well, 8 μm) from Abcam, add 150 μL of serum-free media containing desired chemoattractant to the bottom chamber. Then add 50,000 cells and desired inhibitor (or peptides) to each well of the top chamber. Place the plate and incubate at 37° C. in CO2 incubator for 24 hours. After incubation, add 110 μL of Cell Dye+Cell Dissociation Solution mix to each bottom well and incubate at 37° C. in CO2 incubator for an hour. After incubation remove the top chamber and read the plate at Ex/Em=530/590 nm.

Jurkat cells = assay: Caspase-Glo 3/7 apoptosis assay, peptide-treated Jurkat cells; settings: listed = significant
Method: Cell Culture: Tumor cell lines HCT-116 (Colon Cancer Cell line, ATCC) and U2OS (Osteoscarcoma Cell line, ATCC) cells were grown adherently in ATCC-formulated McCoy's 5a medium supplemented with 10% FBS and 1× penicillin-streptomycin at 37° C. (5% CO2). Jurkat cells (acute T-cell leukemia cell line, ATCC) were grown as suspension cultures in ATCC-formulated RPMI-1640 supplemented with 10% FBS and 1× penicillin-streptomycin at 37° C. (5% CO2). HEP-G2 cells (Liver Cancer Cell line, ATCC) cells were grown adherently in ATCC-formulated Eagle's Minimum Essential Medium (EMEM) supplemented with 10% FBS and 1× penicillin-streptomycin at 37° C. (5% CO2).
Peptide Treatment: Target protein SEQ ID NO: 37997 was synthesized through Fluorenylmethyloxycarbonyl (Fmoc) protection group chemistry using Solid Phase Peptide Synthesis (SPPS). 5 μM of target peptide and control peptides were added to a 96 well plate containing 10,000 cells (100 μL/well). A white-walled 96-well plate adequate for cell culture and compatible with the luminometer was used. (Corning)
Apoptosis Assay: Following 24 hrs of peptide treatment, an equal volume reconstituted Caspase-Glo® 3/7 assay reagent mixture (Promega) was added to the cells. The contents of wells were gently mixed using a plate shaker at 300-500 rpm for 30 seconds. The plate was then Incubate at room temperature for 3 hours. The treated plates were then read for luminescence on Promega™ GloMax® Plate Reader. A blank reaction that contained caspase-Glo® 3/7 reagent, vehicle and cell culture medium without cells was used to measure background luminescence. The blank reaction values were subtracted from experimental values. A negative control that contained caspase-Glo® 3/7 reagent and vehicle-treated cells in medium was included to determine the basal caspase activity of the cell culture system. Significant difference in apoptosis was determined using ANOVA analysis by comparing cells treated with SEQ ID NO: 37997 peptide to cells treated with an irrelevant control peptide, or vehicle control treated cells.

HepG2 cells = assay: Caspase-Glo 3/7 apoptosis assay, peptide-treated HepG2 cells; settings: listed = significant
Method: Cell Culture: Tumor cell lines HCT-116 (Colon Cancer Cell line, ATCC) and U2OS (Osteoscarcoma Cell line, ATCC) cells were grown adherently in ATCC-formulated McCoy's 5a medium supplemented with 10% FBS and 1× penicillin-streptomycin at 37° C. (5% CO2). Jurkat cells (acute T-cell leukemia cell line, ATCC) were grown as suspension cultures in ATCC-formulated RPMI-1640 supplemented with 10% FBS and 1× penicillin-streptomycin at 37° C. (5% CO2). HEP-G2 cells (Liver Cancer Cell line, ATCC) cells were grown adherently in ATCC-formulated Eagle's Minimum Essential Medium (EMEM) supplemented with 10% FBS and 1× penicillin-streptomycin at 37° C. (5% CO2). […]
Apoptosis Assay: Following 24 hrs of peptide treatment, an equal volume reconstituted Caspase-Glo® 3/7 assay reagent mixture (Promega) was added to the cells. […] The treated plates were then read for luminescence on Promega™ GloMax® Plate Reader. A blank reaction that contained caspase-Glo® 3/7 reagent, vehicle and cell culture medium without cells was used to measure background luminescence. […] Significant difference in apoptosis was determined using ANOVA analysis by comparing cells treated with SEQ ID NO: 37997 peptide to cells treated with an irrelevant control peptide, or vehicle control treated cells.

[1] = tested on: HCT116 colon cancer cell line; assay: Maestro Z impedance-based assay on HCT116 cells stably over-expressing target protein; settings: 2 days
Method: Over-expression: Stable over-expression tumor cell lines were made by transduction using lentivirus. For virus production, HEK-293T cells were cultured in DMEM with high glucose and GlutaMAX™ medium (ThermoFisher) supplemented with 10% FBS. After 24 h, cells were transfected using lipofectamine 3000 (ThermoFisher) of Lentiviral packaging plasmid mix (CELLECTA) and pGenLenti plasmids (GenScript Inc) containing: 1) no insert, 2) Target Protein encoding sequence, and 3) the AP2A1 protein (positive control for cell proliferation; https://doi.org/10.1038/sj.one.1205216), into HCT116 (Colon cancer cell line; ATCC). A Myc-tag (EQKLISEEDL) was added to the c-terminus of the expressed protein. After 48 hr post-transfection, culture media containing viruses was collected, loaded onto a 10 ml syringe and filtered through a 0.45 μm filter. […]
Maestro Z Impedance-based assay: The Maestro Z platform (Axion Biosystems) uses impedance measurements (ohms, (2) to quantify the presence of cells on the electrode. Since impedance is noninvasive and label-free, impedance assay is used to quantify dynamic cellular growth over time. For impedance recording, cells were seeded in 96 well assay plate, and the plate was docked in the Maestro Z and the automatic environment controls set the chamber to 37° C. and 5% CO2. Impedance measurements were recorded every minute for the 2 days.

[2] = tested on: HCT116 colon cancer cell line; assay: WST-1 proliferation assay on HCT116 cells stably over-expressing target protein; settings: low serum (0.1% FBS); 48 hours
Method: Over-expression: Stable over-expression tumor cell lines were made by transduction using lentivirus. For virus production, HEK-293T cells were cultured in DMEM with high glucose and GlutaMAX™ medium (ThermoFisher) supplemented with 10% FBS. After 24 h, cells were transfected using lipofectamine 3000 (ThermoFisher) of Lentiviral packaging plasmid mix (CELLECTA) and pGenLenti plasmids (GenScript Inc) containing: 1) no insert, 2) Target Protein encoding sequence, and 3) the AP2A1 protein (positive control for cell proliferation; https://doi.org/10.1038/sj.one.1205216), into HCT116 (Colon cancer cell line; ATCC). A Myc-tag (EQKLISEEDL) was added to the c-terminus of the expressed protein. After 48 hr post-transfection, culture media containing viruses was collected, loaded onto a 10 ml syringe and filtered through a 0.45 μm filter. For cell transduction, HCT116 colorectal cancer cells were seeded in 6-well plates, the virus was added to the cells. After post-transduction, stable cell mixed populations are selected for with puromycin for 14 days. Expression of the Target Protein and controls are confirmed by immunoblot of 50 μg of cell lysate using anti-myc-tag polyclonal antibody (CST).
Proliferation: Polyclonal cell lines that over-express the Target Protein or control, wild-type HCT-116 cells, were plated in 96 well plate (10,000 or 5,000 cells per well) grown in standard media in both low serum (0.1% FBS) and high serum (10% FBS) conditions, respectively. After 48 hours, the cells are subjected to the WST-1 ([…]) assay. The WST-1 assay (Sigma) is a measure of the metabolic activity of group of cells. The higher the metabolic activity the higher the proliferation rate. Significant differences in proliferation are determined by comparing protein-expressing cell lines with a stable cell line of the empty expression vector (control) using ANOVA analysis.

CXCR4, sequence (P61073 whole entry): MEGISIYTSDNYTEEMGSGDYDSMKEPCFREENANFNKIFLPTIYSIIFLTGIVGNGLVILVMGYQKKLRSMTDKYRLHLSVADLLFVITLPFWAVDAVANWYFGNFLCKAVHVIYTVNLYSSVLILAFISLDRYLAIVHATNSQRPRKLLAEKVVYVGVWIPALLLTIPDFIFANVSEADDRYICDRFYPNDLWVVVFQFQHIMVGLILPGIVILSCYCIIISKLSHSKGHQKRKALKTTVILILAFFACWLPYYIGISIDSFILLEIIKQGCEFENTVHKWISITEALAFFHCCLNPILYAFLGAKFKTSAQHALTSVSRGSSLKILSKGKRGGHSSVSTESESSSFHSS

- GPCR ligand mode at CXCR4 (CXCR4; gpcrMAX panel): blocked CXCR4
- % inhibition (CXCR4; 0.3 μM): ~ 80%
- % inhibition (CXCR4; 1 μM): ~ 80%
Molecule: SEQ ID NO: 30949: novel peptide GPCR ligand that blocks CXCR4; sequence only in Sequence Listing (MTAFGLGIPTFLVMQPSGSQPRFPALTQNGVALVRTPLTSVYLRVRICRVLGPRSQPS; listed as Homo sapiens)
- chemotactic migration (NAMALWA cells): significantly inhibit the chemotactic migration

Molecule: SEQ ID NO: 34224: ORF peptide; sequence only in Sequence Listing (MSFDHPEKNGPWPADPINLPSHG; listed as Homo sapiens)
- peptides inducing significant apoptosis vs vehicle control (Jurkat cells): SEQ ID NO: 34224
- z-score compared to vehicle control (peptides inducing significant apoptosis) (HepG2 cells): SEQ ID NO: 34224

Molecule: SEQ ID NO: 30462: target protein over-expressed (Myc-tagged) in stable HCT116 cell line; oncogene (METFEIFYLKCIRVNLISRQLNTFFLAVLLVVCMPCFHSVCTGKRT; cysteine pairing not given here; also: Myc tag; listed as Homo sapiens)
- proliferation over time (impedance) on over-expression vs Empty Vector [1]: significantly increases proliferation

B1: SEQ ID NO: 26966: ORF peptide; sequence only in Sequence Listing (peptide, listed as Homo sapiens)
chain: VSPRFLVLKSSPAHRDSDSPQTPRLRVMESRTLLLLFSGAVALIQTWADYNYNQGRNDLIFTLQLWKRQ
- z-score compared to vehicle control (peptides inducing significant apoptosis) (HepG2 cells): SEQ ID NO: 26966

B2: AP2A: published oncoprotein, over-expressed positive control for cell proliferation (protein, UniProt O95782 1-977, looked up)
AP-2 complex subunit alpha-1: MPAVSKGDGMRGLAVFISDIRNCKSKEAEIKRINKELANIRSKFKGDKALDGYSKKKYVCKLLFIFLLGHDIDFGHMEAVNLLSSNKYTEKQIGYLFISVLVNSNSELIRLINNAIKNDLASRNPTFMCLALHCIANVGSREMGEAFAADIPRILVAGDSMDSVKQSAALCLLRLYKASPDLVPMGEWTARVVHLLNDQHMGVVTAAVSLITCLCKKNPDDFKTCVSLAVSRLSRIVSSASTDLQDYTYYFVPAPWLSVKLLRLLQCYPPPEDAAVKGRLVECLETVLNKAQEPPKSKKVQHSNAKNAILFETISLIIHYDSEPNLLVRACNQLGQFLQHRETNLRYLALESMCTLASSEFSHEAVKTHIDTVINALKTERDVSVRQRAADLLYAMCDRSNAKQIVSEMLRYLETADYAIREEIVLKVAILAEKYAVDYSWYVDTILNLIRIAGDYVSEEVWYRVLQIVTNRDDVQGYAAKTVFEALQAPACHENMVKVGGYILGEFGNLIAGDPRSSPPVQFSLLHSKFHLCSVATRALLLSTYIKFINLFPETKATIQGVLRAGSQLRNADVELQQRAVEYLTLSSVASTDVLATVLEEMPPFPERESSILAKLKRKKGPGAGSALDDGRRDPSSNDINGGMEPTPSTVSTPSPSADLLGLRAAPPPAAPPASAGAGNLLVDVFDGPAAQPSLGPTPEEAFLSELEPPAPESPMALLADPAPAADPGPEDIGPPIPEADELLNKFVCKNNGVLFENQLLQIGVKSEFRQNLGRMYLFYGNKTSVQFQNFSPTVVHPGDLQTQLAVQTKRVAAQVDGGAQVQQVLNIECLRDFLTPPLLSVRFRYGGAPQALTLKLPVTINKFFQPTEMAAQDFFQRWKQLSLPQQEAQKIFKANHPMDAEVTKAKLLGFGSALLDNVDPNPENFVGAGIIQTKALQVGCLLRLEPNAQAQMYRLTLRTSKEPVSRHLCELLAQQF
- proliferation (WST-1) on over-expression vs Empty Vector [2]: significantly increases proliferation
- proliferation over time (impedance) on over-expression vs Empty Vector [1]: significantly increases proliferation
